According to patent US20260109758A1 (BIOSION, published 2026):

Key:
[1] = biological target: T1, recombinant human IL4Rα-his (human, UniProt P24394 26-231, limits assumed, biotin-labeled in the capture ELISA); experiment: SPR Biacore T200; antibody captured on anti-human IgG CM5 chip, IL4Rα-his as analyte; 1:1 Langmuir fit
T1 construct: In-house made; not shown: His tag at the C-terminus
In short: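 Antibodies captured on anti-human IgG CM5 chip (bispecifics at 66.67 nM, controls 10 μg/mL), then serially diluted recombinant human IL4Rα-his (C-terminal His tag) in HBS EP flowed at 30 μL/min. Association and dissociation curves fit to 1:1 Langmuir model.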

[2] = biological target: T2, recombinant human TSLP-his (human, UniProt Q969D9 29-159, biotin-labeled in the ELISAs); experiment: SPR Biacore; TSLP-his amine-coupled to CM5 chip, antibody as analyte; 1:1 Langmuir fit
T2 construct: In-house made; not shown: His tag at the C-terminus
Description: Un-reacted moieties on the biosensor surface were blocked with ethanolamine. Then, serially diluted purified bispecific antibodies and the controls (2-fold serial dilution in HBS-EP⁺ buffer starting at 100 nM) were respectively flowed onto the chip at a flow rate of 30 μL/min. The antigen-antibody association kinetics was followed for 4 minutes and the dissociation kinetics was followed for 13 minutes.

[3] = biological target: T1, recombinant human IL4Rα-his; experiment: dual-binding ELISA: coated human IL4Rα-his, antibody titrated, detection with biotin human TSLP-his and SA-HRP; signal needs both antigens bound
Description: For the dual-binding ELISA, 96-well ELISA plates were firstly coated with 100 μL 1 μg/mL human IL4Rα-his protein (IL4Rα of SEQ ID NO: 33 with His tag at C terminus, prepared in-house) in PBS overnight at 4° C. ELISA plates were washed 4 times with wash buffer (PBS+0.05% Tween-20, PBST) and then blocked with 200 μL/well blocking buffer (5% w/v non-fatty milk in PBST) for 2 hours at 37° C. […] ELISA plates were washed again and incubated with SA-HRP (100 μl/well) for 40 minutes at 37° C. After the final wash, 100 μL/well TMB (Innoreagents) was added. The reaction was stopped 15 minutes later at room temperature with 50 μL/well 1M H₂SO₄, and the absorbance was read on a microplate reader using dual wavelength mode with 450 nm for TMB and 630 nm as the reference wavelength. The OD (450-630) values were plotted against antibody concentration. Data was analyzed using Graphpad Prism and EC₅₀ values were reported.

[4] = biological target: T2, recombinant human TSLP-his; experiment: capture ELISA: antibody captured on anti-human IgG Fc F(ab')2, biotin human TSLP-his, SA-HRP
Description: Briefly, 96-well micro plates were coated with 100 μL 2 μg/mL AffiniPure F(ab′)₂ Fragment Goat Anti-Human IgG, Fey fragment specific (Jackson Immuno Research, Cat #109-006-008) in PBS and incubated overnight at 4° C. Plates were washed 4 times with wash buffer (PBS+0.05% Tween-20, PBST) and then blocked with 200 μL/well blocking buffer (5% w/v non-fatty milk in PBST) for 2 hours at 37° C. […] After the final wash, the plates were incubated with 100 μL/well TMB (Innoreagents). The reaction was stopped 15 minutes later at room temperature with 50 μL/well 1M H₂SO₄, and the absorbance of each well was read on a microplate reader using dual wavelength mode with 450 nm for TMB and 630 nm as the reference wavelength. The OD (450-630) values were plotted against antibody concentration. Data was analyzed using Graphpad Prism and EC₅₀ values were reported.

Binder	Kd [1] [nM]	koff [1] [s⁻¹]	kon [1] [M⁻¹ s⁻¹]	Kd [2] [nM]	koff [2] [s⁻¹]	kon [2] [M⁻¹ s⁻¹]	EC50 [3] [nM]	EC50 [4] [nM]
BSI-502-001 (bispecific antibody, human IgG1, kappa, huC2C1A1A1-V15 IgG with an anti-TSLP scFv (hu1C5F12E9-V8, VH-VL) at the C-terminus of the heavy chain) heavy: EVQLVESGGGLVQPGGSLRLSCAASGFTFSTYGMSWVRQAPGKGLVWVATINSNGGSTSYPDSVKGRFTISRDNAKNTLYLQMNSLRAEDTAVYYCARFFRFRNAMDYWGQGTLVTVSSASTKGPSVFPLAPSSKSTSGGTAALGCLVKDYFPEPVTVSWNSGALTSGVHTFPAVLQSSGLYSLSSVVTVPSSSLGTQTYICNVNHKPSNTKVDKKVEPKSCDKTHTCPPCPAPEAQGGPSVFLFPPKPKDTLYITREPEVTCVVVDVSHEDPEVKFNWYVDGVEVHNAKTKPREEQYNSTYRVVSVLTVLHQDWLNGKEYKCQVSNKALPAPIEKTISKAKGQPREPQVYTLPPSRDELTKNQVSLTCLVKGFYPSDIAVEWESNGQPENNYKTTPPVLDSDGSFFLYSKLTVDKSRWQQGNVFSCSVMHEALHNHYTQKSLSLSPGKGGGGSGGGGSQVQLVQSGAEVKKPGASVKVSCKASGYTFTTYWMHWVRQAPGQGLEWMGVIDPSDSDTTYNQKFKGRVTMTRDTSTSTVYMELSSLRSEDTAVYYCTRSLDGYYDYWGQGTLVTVSSGGGGSGGGGSGGGGSGGGGSDIQMTQSPSSLSASVGDRVTITCRPTENIYSYLAWYQQKPGKAPKLLIYFARTLAEGVPSRFSGSGSGTDFTLTISSLQPEDFATYYCQHHYGTPWTFGGGTKVEIK light: DIQMTQSPSSLSASVGDRVTITCRTSENIYSYLAWYQQKPGKAPKFLVYNAKTLAEGVPSRFSGSGSGTDFTLTISSLQPEDFATYYCQHYYGPPTWTFGQGTKVEIKRTVAAPSVFIFPPSDEQLKSGTASVVCLLNNFYPREAKVQWKVDNALQSGNSQESVTEQDSKDSTYSLSSTLTLSKADYEKHKVYACEVTHQGLSSPVTKSFNRGEC	3.09	0.000497	161000	< 0.0246	< 1e-05	407000	0.0349	0.169
BSI-502-002 (bispecific antibody, human IgG1, kappa, huC2C1A1A1-V15 IgG with an anti-TSLP scFv (VL-VH) at the C-terminus of the heavy chain; AQQ and YTE already stand in the entry) heavy: EVQLVESGGGLVQPGGSLRLSCAASGFTFSTYGMSWVRQAPGKGLVWVATINSNGGSTSYPDSVKGRFTISRDNAKNTLYLQMNSLRAEDTAVYYCARFFRFRNAMDYWGQGTLVTVSSASTKGPSVFPLAPSSKSTSGGTAALGCLVKDYFPEPVTVSWNSGALTSGVHTFPAVLQSSGLYSLSSVVTVPSSSLGTQTYICNVNHKPSNTKVDKKVEPKSCDKTHTCPPCPAPEAQGGPSVFLFPPKPKDTLYITREPEVTCVVVDVSHEDPEVKFNWYVDGVEVHNAKTKPREEQYNSTYRVVSVLTVLHQDWLNGKEYKCQVSNKALPAPIEKTISKAKGQPREPQVYTLPPSRDELTKNQVSLTCLVKGFYPSDIAVEWESNGQPENNYKTTPPVLDSDGSFFLYSKLTVDKSRWQQGNVFSCSVMHEALHNHYTQKSLSLSPGKGGGGSGGGGSDIQMTQSPSSLSASVGDRVTITCRPTENIYSYLAWYQQKPGKAPKLLIYFARTLAEGVPSRFSGSGSGTDFTLTISSLQPEDFATYYCQHHYGTPWTFGGGTKVEIKGGGGSGGGGSGGGGSGGGGSQVQLVQSGAEVKKPGASVKVSCKASGYTFTTYWMHWVRQAPGQGLEWMGVIDPSDSDTTYNQKFKGRVTMTRDTSTSTVYMELSSLRSEDTAVYYCTRSLDGYYDYWGQGTLVTVSS light: DIQMTQSPSSLSASVGDRVTITCRTSENIYSYLAWYQQKPGKAPKFLVYNAKTLAEGVPSRFSGSGSGTDFTLTISSLQPEDFATYYCQHYYGPPTWTFGQGTKVEIKRTVAAPSVFIFPPSDEQLKSGTASVVCLLNNFYPREAKVQWKVDNALQSGNSQESVTEQDSKDSTYSLSSTLTLSKADYEKHKVYACEVTHQGLSSPVTKSFNRGEC	1.51	0.000487	323000	< 0.0472	< 1e-05	212000	0.136	0.369
